{
  "source": "paper PMC6955894",
  "about": "“Development of Aptamer-Based TID Assays Using Thermophoresis and Microarrays”",
  "key": {"VEGF-A165 [1]": {"biological_target": "T1, VEGF-A165 (human, UniProt P15692-4 27-191)", "T1 sequence (P15692 other isoform, or with tags, fused parts or gaps)": "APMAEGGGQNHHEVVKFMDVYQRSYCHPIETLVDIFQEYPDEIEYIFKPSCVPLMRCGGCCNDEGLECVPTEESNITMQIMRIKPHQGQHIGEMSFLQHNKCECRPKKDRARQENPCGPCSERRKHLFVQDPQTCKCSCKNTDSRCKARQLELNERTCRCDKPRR", "assay": "MST; no binding curve over 5 fluorescence units; TBSET: 10 mM Tris, 100 mM NaCl, 50 mM KCl, 0.05 mM EDTA, 0.05% Tween 20, pH 7; MST with 25 nM aptamer, 20 min at 20 C, read at room temperature; microarray in TBSETB (TBSET + 1% BSA), 1 h for the co-incubation", "conditions": "protein: recombinant; chain copies: 2; label: 3' FITC"}, "VEGF-A165 [2]": {"biological_target": "T1, VEGF-A165", "assay": "MST; TBSET: 10 mM Tris, 100 mM NaCl, 50 mM KCl, 0.05 mM EDTA, 0.05% Tween 20, pH 7; MST with 25 nM aptamer, 20 min at 20 C, read at room temperature; microarray in TBSETB (TBSET + 1% BSA), 1 h for the co-incubation", "conditions": "protein: recombinant, chain copies: 2"}, "alpha-chymotrypsin [3]": {"biological_target": "T2, alpha-chymotrypsin (UniProt P00766;P00766;P00766 1-13;16-146;149-245)", "assay": "microarray TID (competition); 1 uM protein, 1000 pM cV7t1-Cy5: no decrease; TBSET: 10 mM Tris, 100 mM NaCl, 50 mM KCl, 0.05 mM EDTA, 0.05% Tween 20, pH 7; MST with 25 nM aptamer, 20 min at 20 C, read at room temperature; microarray in T"}, "alpha-chymotrypsin [4]": {"biological_target": "T2, alpha-chymotrypsin", "assay": "capillary-scan TID (competition); up to 7.5 uM; complement did not dissociate; TBSET: 10 mM Tris, 100 mM NaCl, 50 mM KCl, 0.05 mM EDTA, 0.05% Tween 20, pH 7; MST with 25 nM aptamer, 20 min at 20 C, read at room temperature; microarray in T"}},
  "data": [
    {"binder": "CACTACAGAGGTTGCGTCTGTCCCACGTTGTCATGGGGGGTTGGCCTG (ssDNA)", "note": "[Syl3C-FITC]", "values": [
      {"measurement": "binding result", "setting": "VEGF-A165 [1]", "result": "no binding"}
    ]},
    {"binder": "ATACCAGTCTATTCAATTGGGCCCGTCCGTATGGTGGGTGTGCTGGCCAG (ssDNA)", "note": "[Del5-1-Cy5]", "values": [
      {"measurement": "Kd", "setting": "VEGF-A165 [2]; label: 3' Cy5", "result": "47 ± 18", "unit": "nM"}
    ]},
    {"binder": "TGTGGGGGTGGACGGGCCGGGTAGATAGTATGTGCAATC (structured_DNA)", "note": "[V7t1-Cy5]", "values": [
      {"measurement": "Kd", "setting": "VEGF-A165 [2]; label: 3' Cy5, G-quadruplex with three G-quartets", "result": "201 ± 28", "unit": "nM"}
    ]},
    {"binder": "TGTGGGGGTGGACGGGCCGGGTAGATAGTATGTGCATTC (structured_DNA)", "note": "[V7t1-FITC]", "values": [
      {"measurement": "Kd", "setting": "VEGF-A165 [2]; label: 5' FITC, G-quadruplex with three G-quartets", "result": "155 ± 55", "unit": "nM"}
    ]},
    {"binder": "V7t1-NH2/cV7t1-Cy5 (mixed, 3' NH2 on strand 1, immobilized on aldehyde slide) DNA 1: TGTGGGGGTGGACGGGCCGGGTAGATAGTATGTGCATTC DNA 2: CCGTCCACCCCC", "values": [
      {"measurement": "binding result", "setting": "alpha-chymotrypsin [3]", "result": "no binding"}
    ]},
    {"binder": "V7t1-FITC/cV7t1-Dabcyl (mixed, 3' Dabcyl quencher on strand 2) DNA 1: TGTGGGGGTGGACGGGCCGGGTAGATAGTATGTGCATTC DNA 2: CCGTCCACCCCC", "values": [
      {"measurement": "binding result", "setting": "alpha-chymotrypsin [4]", "result": "no binding"}
    ]}
  ]
}
